1 protein from US20210145944 can be followed below.

One data set deals with Tau-441 (P301L) (UniProt P10636).
Chain of Tau-441 (P301L) (P10636 other isoform, or with tags, fused parts or gaps P301L): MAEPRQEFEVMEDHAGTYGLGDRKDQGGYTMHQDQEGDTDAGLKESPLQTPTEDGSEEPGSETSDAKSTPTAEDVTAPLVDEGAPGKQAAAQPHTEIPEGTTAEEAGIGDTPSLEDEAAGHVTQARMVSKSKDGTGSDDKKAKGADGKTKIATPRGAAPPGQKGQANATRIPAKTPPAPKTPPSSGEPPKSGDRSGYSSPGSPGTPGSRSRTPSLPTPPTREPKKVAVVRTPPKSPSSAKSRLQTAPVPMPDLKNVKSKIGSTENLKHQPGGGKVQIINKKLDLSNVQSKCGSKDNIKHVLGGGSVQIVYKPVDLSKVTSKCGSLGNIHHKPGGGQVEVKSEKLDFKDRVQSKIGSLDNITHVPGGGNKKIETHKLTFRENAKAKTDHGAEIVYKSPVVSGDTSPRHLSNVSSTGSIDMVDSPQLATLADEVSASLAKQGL

B1: cathepsin G (enzyme, UniProt P08311 21-244, looked up, species assumed)
Cathepsin G: IIGGRESRPHSRPYMAYLQIQSPAGQSRCGGFLVREDFVLTAAHCWGSNINVTLGAHNIQRRENTQQHITARRAIRHPQYNQRTIQNDIMLLQLSRRVRRNRNVNPVALPRAQEGLRPGTLCTVAGWGRVSMRRGTDTLREVQLRVQRDRQCLRIFGSYDPRRQICVGDRRERKAAFKGDSGGPLLCNNVAHGIVSYGKSSGVPPEVFTRVSSFLPWIRTTMRS
modifications: immobilized
For B1, in the data set on Bodipy-labelled casein, the “casein digestion by resin-immobilized protease, fluorescence (RFU) at 5 and 60 min” value was “bar at 5 min about 2.3x10^7 RFU, bar at 60 min about 5.3x10^7 RFU; highest of the three groups; no control bar drawn”; the “casein digestion, fluorescence (RFU) of Bodipy-labelled casein after 1 h against protease concentration in solution” value was “near 0 up to about 0.1 ug/ml, rises to about 3.4x10^7 RFU; the last two points (about 50 and 100 ug/ml) are at the same height”; the “casein-digestion activity, immobilized protease, fluorescence” value is “exhibited casein-digestion activity at 5 minute and 60 minute incubation times”; the “casein-digestion activity, protease in solution, fluorescence” value was “exhibited casein-digestion activity having linear reaction kinetics up to approximately 6 µg/ml of each protease”. In the data set with Tau-441 (P301L), the “digestion on immobilized protease column, SDS-PAGE silver stain (FIG. 3A)” value is reported as “rapidly degraded”; the “loss of the Tau-441 (P301L) band on a silver-stained SDS-PAGE gel after incubation on the protease column” value was “no band in the Cathepsin G column lanes at 2, 10 and 20 min; the No protease column lanes show a strong band of equal strength at 2, 10 and 20 min”.
